Test results as given in publication PMC12482196.

Key:
[1] = system: T1, MBP-YlAaf1 (Yarrowia lipolytica), ORF:dd6ddf17; assay: EMSA; conditions: 10 mM Tris-HCl pH 7.5, 50 mM NaCl, 0.5 mM EDTA, 1 mM MgCl2, 4% glycerol, 0.5 mM DTT; 300 ng probe, 0-0.5 ug protein in 20 uL; 4% native PAGE in 0.5x TBE at …
T1 sequence: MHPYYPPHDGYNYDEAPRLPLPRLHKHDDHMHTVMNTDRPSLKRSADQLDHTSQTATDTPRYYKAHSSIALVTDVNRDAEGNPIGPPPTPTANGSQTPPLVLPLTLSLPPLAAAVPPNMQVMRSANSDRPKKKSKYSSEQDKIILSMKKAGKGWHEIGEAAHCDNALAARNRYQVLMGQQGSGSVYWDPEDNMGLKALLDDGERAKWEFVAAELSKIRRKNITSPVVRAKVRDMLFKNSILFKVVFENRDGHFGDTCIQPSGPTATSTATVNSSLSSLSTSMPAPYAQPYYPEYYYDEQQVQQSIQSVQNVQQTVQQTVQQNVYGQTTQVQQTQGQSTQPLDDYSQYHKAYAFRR

[2] = target: VC-YlAaf2 (Yarrowia lipolytica); assay: split reporter (BiFC, NanoBiT); BiFC with the N-terminal and C-terminal regions of Venus in S. cerevisiae YEF473A, cells grown at 30°C for 16 h in liquid SC-Ura-His medium, fluorescence microscopy, nucleus by DAPI

percent of cells with the GFP signal in the nucleus [2] | Substance | binding [1]
– | ACCTCCCTTCGTGGTTTATGACGAAACACGCTTAGCTAAAGTTCTAAAGGCTAATATTACGAACTCTGTGAAAAGGCGAAAAACCACAAAAGGGACGTGTGGTGTTGAAAAGGTGAAAAAGAGAAAACGAAAAGTCTGGCCGAAGTCAAT (double strand) [MHY1 promoter 150-bp probe] | no binding
17 % of cells | VN-YlAaf1 (natural protein) | –
